Assay: soluble fraction after stress (log2 fold change); higher = more stays soluble; pooled small domains, quantitative proteomics
Details: stress: 50 degC
Procedure, shortened: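 The stress applied to every library was 50°C. These custom libraries of small protein domains were pooled and measured at high throughput with quantitative proteomics as the read-out. Aggregation propensity is expressed as the base-two logarithm of the fold change in how much of each protein remains soluble. The higher the value, the more of that protein stays in solution.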

Going from “HMIPDPPALGSNLHRERRRQQLSLDALAAASGVSKAMLSQIEADKVNPTIATMWKIAHALNIDFETLLRGE” to “HMHKFMEQNQDRRLSRMKELIGILSEAAKTYYQESREIMSNFQYDRMYDELLELEKETGVVMAGSPTQKV”, the “soluble fraction (log2)” value rises from -0.283 to -6.44e-05.

First: HMKHYIDFIAEQLKTLTAIPSPSGYTKNATDYLMKLLQDMGYEPKLSRKGNVFVTLGGDGEPLVLAAHVD
Second: HMIINLGELLKMLEVNKYQDAMDALDSLIEEGGSLEKIESLHEIRQHTHAMNFREAERLLSILIESEGA
The “soluble fraction (log2)” value of the first is higher: -0.114 for the first, -0.746 for the second.

Compared with “HMHRGTPASIIAAAKQYLTGGQTVELYEREGGPWTFRLRTYLSETPYPEKVRASVEALKPAGVVFLYELQS”, “HMQKPIKPVKMHTVGPKENLSSIGRMYEVNGRVLANYNNIDYDKGLTIGQVLKIPPKGTTLEQVT” is higher in “soluble fraction (log2)” value: -0.207 for the first, 0.431 for the second.

“HMEGMSIYVTVNGDMVHLTGKMSYVFVDVFEHIDFDLSKPQGSGIVTKLNGRDAQYMEEIRSGDMIEIYWR” and “HMKHAIKEKIRNEYVHGYLNEEGYRVMPTLDELIRKYEVPASSTYRASSKEGWKKQKEAFLEHLRGEIDA” are within 0.2 log units of each other in “soluble fraction (log2)” value: -0.133 for the first, -0.139 for the second.

First: HMIKLSTNENTALRLVMERGLVTESELKGLFDNPVAVMESLISKMIETNTHWIHSERSENGEWVYAWQ
Second: HMELPMGTQLPPERELAQQMQVSRAVVNGGLAELAQQGFLEVRPRQGTFVADYRRKGNLSTLIAIMEY
The “soluble fraction (log2)” value of the first is lower: -0.456 for the first, 0.0153 for the second.

“HMSGDYRPLYPNLPESEKSEAFNLLAGSALPARLDDRTGDIMVPADRYYEARMILANAGFAD” and “HMQDGVNLENIEQKLSTLGVGKAQYFLQNVGGNKFNAYMALNTDGVEGYQKGSDTLIEIKNVE” are within 0.2 log units of each other in “soluble fraction (log2)” value: 0.0141 for the first, 0.11 for the second.

Compared with “HMRTIGDSVYEKIKYDIVHLTLKPGEKLSEASLAEKYGISKAPIRVALRKLQEEGLIVIRPQSGSIVSP”, “HMKVFREERLQLILEKLIHEKKVVVSDLVKYFNVSPSLIRMDLAELEKRDLILRTHGGAILPD” is lower in “soluble fraction (log2)” value: -0.568 for the first, -2.23 for the second.

Going from “HMYMKMNDRIRSRRKELKMTQSVLAKLVGVNRVTITGWESGDYKPGGENLQALAAALEKTPQWLLDGKD” to “HMVAEKSKIEMAIDSINKLAKELADSGVAKKTISDIIKSVSGSANYNKITDFEVATDVYKELVALKNKEDT”, the “soluble fraction (log2)” value rises from -0.996 to 0.384.

First: HMDNLSESQIKAYSSILSRTHEISDLAENKDYLAFSLWIANILRDPQSVREETAKRVFSALHTNTDFK
Second: HMNMLGEQVRNIRKSRGFTLKALAEQTGLSIGYISQIERNLTDPSLSTLRKISAALDVPTYLFMG
The “soluble fraction (log2)” value of the first is higher: -0.945 for the first, -1.55 for the second.

Compared with “HMINIQYSYNDGKETLHNLSPEVIAEKIMDDPNGYHIVWKQGMVGWVNANDIDDIAKLLRQKK”, “HMKQLLHLVIGGELKDVRGIEFEDLSKIDFVGAFPSYKAAYDAWKNAAQRTVDNAEMRYFILHAHR” is lower in “soluble fraction (log2)” value: -0.0619 for the first, -1.79 for the second.

“HMLRKTTDLDAIRSVAKDVIDQNPKAVEDYVGGKESAIGFLLGQVMRATKGTADANTVRELLKEILDS” and “HMRELPKRPEIRYAAGDRVFHKAFGNGLVKQVAQTAGGARVTVDFGEGKGVKTFAGDAPMIKI” are within 0.2 log units of each other in “soluble fraction (log2)” value: 0.311 for the first, 0.342 for the second.

First: HMRGETSYANDIIKRLKQANLIVVEGTLYPLLNRLKKDGLLHYEWRESQQGPPRKYYGLTEEGEA
Second: HMLLFSVADIVKRSKRILSFKTDAELAAYFGVSRSTLSNWIARNSIDFPLLLSKMKDVDYTWLILGKGTPG
The “soluble fraction (log2)” value of the first is higher: -0.132 for the first, -3.97 for the second.

“HMDTNVPVPNVNGMTLNQAKAALEAAGFHVAVNWLGEKSDNNSVISYEPNGSAAKGTTITITVIAQPEQDG” and “HMDIVENSMPNVVGLELNRAKELMTQLGFTNVRYEPTESSRPENEVVYQSVDKDETLDVSSEIIIQYSSGV” are within 0.2 log units of each other in “soluble fraction (log2)” value: 0.0386 for the first, -0.0131 for the second.

First: HMRDYKTHLQEVLQSKGEVNIWYKLIDEKGPDHNKKFVMQVGIDSKILGFGEGKSKKEAEQVAARKALDNI
Second: HMNYAVTAARRESILNAALEIFGKSGYNGSSVKQVALAVGMTEAGVLHHFGTKSNLLIEVLRV
The “soluble fraction (log2)” value of the first is lower: -0.118 for the first, at least 0.62 for the second.

First: HMPAEEVPLYKAVVVTTPPNRLRVRFSPAGDFKRWLQSGEEVDVYQELGDWRRIEPNGWSSAEWLQRVG
Second: HMEQRREEFILLAKELLEKELRKQNLEVHENLKPDVLNDVAKRLGMVSMDDLLAAVGDGKITPGTVVSKIV
The “soluble fraction (log2)” value of the first is lower: -0.157 for the first, 0.064 for the second.

Going from “HMVSLEEIINDLTSRIQTAVKMRFSDFVQNRKERVGVIVSFLGMLELVKQGIIDIKQEGHFADIEMETA” to “HMETIGENIKTYRQKKGYTQEEVANRLHVTRQTISKWEKNYSIPDAEVLVKLADVLEVQTSQLLGV”, the “soluble fraction (log2)” value rises from -0.296 to 0.102.

Going from “HMKTYEILFDILSRESDYISGEKLAQELGISRTSIWKAIQHLEKEGVHIESVKNKGYKLLSGDLLIAEKI” to “HMNTPALRQRTQDVPALLIHFAKYFATKGQTPISFAPDFLEALKDYPWPGNVRELRNLVESMVV”, the “soluble fraction (log2)” value rises from -1.14 to -0.0746.

“HMVLTSFHDNFPKTGTTYTVRSGDTISGIATKFGSTRDWIQNANEISHPKYLQVGRTLFIPH” and “HMDLTSDANLKEAKDQILNLLNDGKRHHVTEINKILLPPVQVQEALRFLIHEETVRVDASFLF” are within 0.2 log units of each other in “soluble fraction (log2)” value: -0.203 for the first, -0.167 for the second.

Compared with “HMAQELPYEKVTMNGKMFYVYHVKAGEGLYLISRTFSVNADEILKFNPSIENGLKSGQVLYIPIK”, “HMPDRQKDIQNWQQIAETLLNMLDKYVAALETGKTGLAEAYKAIFAETLRRLDDRLDPEQFLP” is lower in “soluble fraction (log2)” value: -0.0691 for the first, -1.54 for the second.

First: HMRKIVEGVLTKKEGKWYLLTDIETYKISDASAEYHKAELNDRASALIPAQNPKVPFASLEKVFN
Second: HMEHIEVDTSHIAVGSKVKHKAFGLGEITDKGNTYVFVKFDGQAIPKKFQFPGAFTQGFLTK
The “soluble fraction (log2)” value of the first is lower: -0.219 for the first, 0.144 for the second.

“HMGSKKAIPYVSGMSETEAQNELEEAGFKVTSSFQYDDSVESGKVISTTPEAGTKAEKGSTVTMLVSQGSN” and “HMTLGSVRTVRQVLDDGRLLVADSGGNVTLVRRAGTLAKENVNTGDRVSVDSSVRFALTLIPV” are within 0.2 log units of each other in “soluble fraction (log2)” value: -0.114 for the first, -0.0338 for the second.

“HMSLSKEEFETISKQVLELAGAGPIPVKELLQKMERTSKEKAWKVIEFLQAEDKIVPDATGRIQL” and “HMSNRFIQFRQRAIDWLNSDRDFNAGILLLEESGFKPGVVAKLKRHGVNGPEAKKRLKFLINELVKAWA” are within 0.2 log units of each other in “soluble fraction (log2)” value: -0.068 for the first, -0.0824 for the second.

First: HMKTEVNITPGIIDWIERYVQTDKISSSMTEDFQHWKSGTKKPTFNQVEAFSKAINVPLGYFFLKTPPAE
Second: HMNINHEINIKSKKKISILENNPNLSQFYLTKNPDQYNYNLVFSDKSELNKLKEKLESDNEVEDIDIRYG
The “soluble fraction (log2)” value of the first is lower: -0.302 for the first, 0.06 for the second.

Going from “HMNPEDDLLKAIIMKYFSNAQVQVDKNVIEYLLKRVDRDYQNLYNILEKINILSLQRKSKITTHLIRDIM” to “HMYAGTWISESGQWKYRNDDGSFAKGWFQDLDSRWYYFDANGHMLSDTLTPDGYRLGEDGAWVND”, the “soluble fraction (log2)” value falls from -0.432 to -0.638.

First: HMLHQSLVVNAASGRVTVSLDIVPDEDNPYAVLRATDDSDEPLAQVRVAPSFKLNRASALAWIESQFARP
Second: HMSGPAEDLLAIEGMDKELAYELAARGIRTRDELADQSLDELEAVPGLDPVRAGQLIMAARAHLFENAGQ
The “soluble fraction (log2)” value of the first is lower: -0.821 for the first, -0.124 for the second.

Compared with “HMIEESTVPDLKGKSQEDAIKLLEDANLKYQIVEEESKKIEAGYVISQETDANKKVNAGDTVIIHVST”, “HMDGKPSLIISNGQINYKEMVKLRYSLEDLLFQLRQNSIKSIEEVEYAFLESNGKLSIFPYNFL” is lower in “soluble fraction (log2)” value: 0.295 for the first, -1.51 for the second.

Going from “HMSTKRGEILEFLKDFSARKGYAPSVREIMQAVGLKSTASVHYHLSELHKAGLITVDGTKNRAISLA” to “HMLEQEQFESKLLKAINNINETQRIAFLMHRIDGKKYAEIASELNISVKAVEKRIHLALIELKKEIENF”, the “soluble fraction (log2)” value falls from -0.149 to -0.871.

First: HMQIAGLDDIDNRIIDLLLKNGRASYSEIGAAVGLSRTAAKNRIRALEASGIIRGYQAILDPQA
Second: HMSEVPAAVLVTGGSINLREAPSTDATIIDVAQVGEKMTVLAEKNSWYQVSRGGRNVWVASWVVDPLT
The “soluble fraction (log2)” value of the first is lower: -0.205 for the first, 0.208 for the second.

Going from “HMLSSAAAIDRILAGGTAAMNHRQFDAALTSFNTVIEMRPDFAEGWNKRATLYYLIGEYERSIADVERTLA” to “HMHYNMNYLENLTKTELFDLAKNKFGLTYAEMERHLSIPEGGARYAIKAEHSKYGSDIKKYLVEFLLE”, the “soluble fraction (log2)” value falls from 0.1 to -1.18.

“HMGAIVTVPDLAGRPQPGAEAELRRSGLVPKVRTSYSLTGTRGTVISQTPPAGSRVREGAEVEVVVSRGLN” and “HMKLHQDLQIKVIDAANNKVEFIDTATGTSLATRTLDVNGVSKARGFEATLYGVVEDNDVFHIA” are within 0.2 log units of each other in “soluble fraction (log2)” value: 0.0922 for the first, 0.158 for the second.

Going from “HMQKKYLAVKEYLLEQINSGAYQPDEPIPPEREMAAMLGVNRMTLRRAVEELMYEGLLIRKKGSGTFLTK” to “HMGQGAASAPLRELGVDPVSEKQMVLKDGRFGPYVTDGETNASLRKGDEVETITDERASELLQMRRDAGPS”, the “soluble fraction (log2)” value rises from -1.52 to -0.195.

Going from “HMEKTKLPNLVDFTYRQAEALLQTHGLKVGKVERVPDVGQTVIKAKYKGKVISWGTELNKGEKIDLVIGKG” to “HMGTHDAGTRFFDNLDSLLQNRDATRADVLAVYLLAVSLGFRGKHRSVSSAPQIAHYRNQAYVTLFQ”, the “soluble fraction (log2)” value rises from 0.189 to 0.546.

Compared with “HMSEKRLHLVVDESDVNTRIDKYIADELDGYSRSFIQKLIKDNNVLVNGRAVKPNYNIGISDNIDIVLPKL”, “HMVVVPDVKGLKIEEAAEFFKNNNLHYNVIDSVFSKDVEPGAIVELSPLAGSKVKEGRIVFITVNALTS” is lower in “soluble fraction (log2)” value: -0.00587 for the first, -0.651 for the second.

Going from “HMAGRKMMVMANNLSVRKSANSLSEKLADLSRGDTVEYISSTNGWNKVRYKGQIGYVSSYYLKDTGEEVE” to “HMATTMSADWRPSEDAVGILVNAEINARFIEDAIPEFVLYWRERGAVHGAWNSKFIEHIRRQWAKFSAS”, the “soluble fraction (log2)” value falls from -0.0409 to -2.2.

“HMNPTTQIQYNLPKSEFVSIYIYDLIGNRVKSLINNYQDAGYKSVYWDAMNDLGQPVSAGMYIY” and “HMIMQTTSDRINQRMRDLGLQHKDLVAATGASKGTVTNWINGVNNPTGKRLVQLAQALKTTSSWLLTGN” are within 0.2 log units of each other in “soluble fraction (log2)” value: -0.134 for the first, -0.12 for the second.

Compared with “HMQLYSLEVLSKKKVDLIENNKNLINLYFNKENGEYSYRLIFKNRKELYQVKDTLDNSSDVVSIKLDL”, “HMDQSIDADIINLNFSKNIIKIEENVYYKNNNAKVNADKIEINIETKKLKISMNEQEDEVEIFAK” is higher in “soluble fraction (log2)” value: -0.863 for the first, 0.283 for the second.

First: HMIVVMARETSTDDLEAIRERIESRGMVAQINLGVERTVIGVMGSIPPDFKDEMELMNGVVEVVMISK
Second: HMFSPSDEDLELAHRQIRAFEEVEANGKSIAVVDGRIVESLHIVTARDTLEKAKAITALAEEM
The “soluble fraction (log2)” value of the first is lower: -0.408 for the first, 0.115 for the second.

With “HMHKAVVGPPNARKLAVTYGFKRWPALVFFRDGKYLGAVDGLRLWADLVREADEIMHSEPHYP” the “soluble fraction (log2)” value was -0.166.
